Data on two molecules can be found in patent US20060084618, “Adiponectin promoter and use thereof” (published 2006).

One series has as its target PPARγ/RXRα heterodimer (Homo sapiens, UniProt P37231;P19793 P37231:1-505,P19793:1-462). Kind of series: EMSA; poly(dI-dC), 25 C 20 min then 4 C 15 min; band when both PPARγ and RXRα present; competed by 10x and 50x unlabeled wild type. Particulars: tags: TNT T7 Quick Coupled (Promega); label: 32P.
The target in a further series is LRH-1 (Homo sapiens, UniProt O00482 O00482:1-541). As to the kind of experiment: EMSA; conditions as Example 4; competed by 10x and 50x unlabeled wild type. The note with it: protein: synthetic; tags: synthesized in vitro from human LRH-1 expression plasmid; label: 32P. Background: A gel shift assay detects complexes by their altered migration in electrophoresis.
Sequence of LRH-1 (O00482 whole entry, one chain of several): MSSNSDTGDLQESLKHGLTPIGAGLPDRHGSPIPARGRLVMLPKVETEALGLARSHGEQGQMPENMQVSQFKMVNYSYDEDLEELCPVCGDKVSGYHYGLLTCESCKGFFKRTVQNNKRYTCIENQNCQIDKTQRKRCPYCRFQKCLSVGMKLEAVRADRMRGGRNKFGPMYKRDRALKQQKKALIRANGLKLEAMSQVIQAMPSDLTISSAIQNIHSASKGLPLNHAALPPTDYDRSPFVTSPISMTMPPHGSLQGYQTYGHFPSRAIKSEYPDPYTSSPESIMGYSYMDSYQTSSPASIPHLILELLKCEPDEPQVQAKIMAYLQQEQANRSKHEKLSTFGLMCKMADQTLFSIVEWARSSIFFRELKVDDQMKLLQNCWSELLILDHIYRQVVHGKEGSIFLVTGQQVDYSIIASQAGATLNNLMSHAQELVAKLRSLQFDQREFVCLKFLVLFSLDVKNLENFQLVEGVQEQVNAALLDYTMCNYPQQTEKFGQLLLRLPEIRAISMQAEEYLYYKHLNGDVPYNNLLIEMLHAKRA

Sequence of PPARγ/RXRα heterodimer (P37231 whole entry, chain 1 of 2): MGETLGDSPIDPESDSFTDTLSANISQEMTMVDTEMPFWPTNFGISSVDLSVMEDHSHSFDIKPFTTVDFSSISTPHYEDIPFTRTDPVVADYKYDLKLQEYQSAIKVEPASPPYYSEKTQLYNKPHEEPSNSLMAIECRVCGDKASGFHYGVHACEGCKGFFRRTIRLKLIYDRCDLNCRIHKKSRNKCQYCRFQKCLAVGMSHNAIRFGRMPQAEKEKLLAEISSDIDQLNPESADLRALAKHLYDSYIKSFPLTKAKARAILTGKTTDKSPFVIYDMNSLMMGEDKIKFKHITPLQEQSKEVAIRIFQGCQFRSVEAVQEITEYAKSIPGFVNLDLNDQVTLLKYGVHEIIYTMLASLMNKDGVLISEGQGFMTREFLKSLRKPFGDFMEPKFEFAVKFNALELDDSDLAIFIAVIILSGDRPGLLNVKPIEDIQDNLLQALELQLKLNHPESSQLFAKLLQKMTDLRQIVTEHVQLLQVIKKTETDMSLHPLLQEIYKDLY
Sequence of PPARγ/RXRα heterodimer (P19793 whole entry, chain 2 of 2): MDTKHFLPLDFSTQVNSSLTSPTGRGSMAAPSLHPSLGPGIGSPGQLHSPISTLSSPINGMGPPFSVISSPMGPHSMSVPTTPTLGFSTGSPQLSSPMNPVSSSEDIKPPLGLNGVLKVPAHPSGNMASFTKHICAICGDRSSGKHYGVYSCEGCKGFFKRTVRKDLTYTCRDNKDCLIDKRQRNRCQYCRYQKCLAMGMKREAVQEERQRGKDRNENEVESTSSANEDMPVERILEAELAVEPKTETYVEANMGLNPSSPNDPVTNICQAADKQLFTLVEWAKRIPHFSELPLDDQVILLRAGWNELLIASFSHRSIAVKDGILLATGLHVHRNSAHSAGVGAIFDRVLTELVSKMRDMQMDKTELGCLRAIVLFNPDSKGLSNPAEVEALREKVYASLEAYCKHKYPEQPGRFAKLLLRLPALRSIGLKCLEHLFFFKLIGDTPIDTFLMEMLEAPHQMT
Protocol for LRH-1: To confirm the direct binding of LRH-1 to the regulatory sequence LRH-RE found in human adiponectin promoter region, gel shift assay was executed. […] LRH-1 protein used was synthesized in vitro using human LRH-1 expression plasmid as template. […] In the competitive reaction, identical oligoDNAs to the labeled probe were used as wild-type competitors. […] 10 times or 50 times higher concentration of each unlabeled oligoDNAs was added into the reaction.
Protocol for PPARγ/RXRα heterodimer: For the binding reaction, human PPARγ and RXRα protein were synthesized in vitro by using TNT T7 Quick Coupled Transcription/Translation Systems (Promega corporation) according to a supplyer's protocol. […] The binding reaction was performed in 20 μl of a solution including 1 μg of poly (dI-dC), 1 μl of the in vitro synthesized nuclear receptor solution, and 200,000 cpm of the labeled probe. After mixing, it was incubated for 20 minutes at 25° C. and was left for 15 minutes at 4° C. The labeled probe binding to nuclear receptors was separated from the free probe by electrophoresis using 4% of polyacrylamide gel. The electrophoresis was executed using 0.5× TBE buffer (45 mM Tris, 45 mM boric acid, and 1 m M EDTA) for 90 minutes under a voltage of 200V. After the electrophoresis, the gel was dried and analyzed by BAS2500 system (Fuji Photo Film Co., Ltd.). To confirm that the labeled probe binds to nuclear receptors specifically, the competitive reactions were executed.

B1: adiponectin PPRE probe (-291 to -267) (dsDNA)
DNA 1: TGGTTTTGACTTTTGCCCCATCTTC
DNA 2: GAAGATGGGGCAAAAGTCAAAACCA
In the case of B1, in the series with PPARγ/RXRα heterodimer, the binding result is listed as “binds”.

B2: adiponectin LRH-RE probe (-245 to -221) (dsDNA)
DNA 1: AATAAGGGTCAAGGCCTGGAAACAC
DNA 2: GTGTTTCCAGGCCTTGACCCTTATT
Regarding B2, in the series with LRH-1, the binding result is “binds”.
